Measured values as given in the RNAGym collection of RNA variant scans (doi:10.7554/elife.80360).

B1: Hammerhead Ribozyme (parent)
chain: ACCGGAUGUGCUUUCCGGUCUGAUGAGUCCGUGAGGACGAAACAG

Variants of: B1
Assay: self-cleavage, relative activity (ratio to wild type); higher = more cleavage; co-transcriptional
AGCGGAUGUGCUUUCCGGUCUGAUGAGUCCGUGAGGACGAAGCAG [C2G A42G] showed a self-cleavage of 0.273.
With ACCGGAUGUGCUUUCCGGUCUGAUGAGUCCUUGAGGUCGAAACAG [G31U A37U] the self-cleavage was 0.847.
GUCGGAUGUGCUUUCCGGUCUGAUGAGUCCGUGAGGACGAAACAG [A1G C2U] gave a self-cleavage of 2.07.
For ACCGGAUGUGCUUUCUGCUCUGAUGAGUCCGUGAGGACGAAACAG [C16U G18C], the self-cleavage was 0.529.
Work on AGCGUAUGUGCUUUCCGGUCUGAUGAGUCCGUGAGGACGAAACAG [C2G G5U] yielded a self-cleavage of 0.296.
ACCGGAUCUGCUUUCCGGACUGAUGAGUCCGUGAGGACGAAACAG [G8C U19A] showed a self-cleavage of 0.295.
ACCGGAUGUGCUUUCCGGUCGGAUGACUCCGUGAGGACGAAACAG [U21G G27C] gave a self-cleavage of 0.4.
ACGGGAUGUGCUUUCCGGUCUGAUGUGUCCGUGAGGACGAAACAG [C3G A26U] showed a self-cleavage of 0.361.
Variant UCCGGAUGUGCUUUCCGGUCUGAUGAGUCCGUGAGGAAGAAACAG [A1U C38A] has a self-cleavage of 0.528.
Variant ACCGGAUGUGCGUUCCGGUCUGAUGAGUCCGUGACGACGAAACAG [U12G G35C] has a self-cleavage of 0.444.
ACCGGAUGUGCUUUCCGGUCUGAUGAGUCGGGGAGGACGAAACAG [C30G U32G] showed a self-cleavage of 0.651.
In the case of ACCGGAUGUGCUUUCCGGUCUGAUGAGCCGGUGAGGACGAAACAG [U28C C30G], the self-cleavage is reported as 0.322.
ACCGGACGUGCUUGCCGGUCUGAUGAGUCCGUGAGGACGAAACAG [U7C U14G] showed a self-cleavage of 0.975.
ACCAGAUGUGCUUUCCGGUCUCAUGAGUCCGUGAGGACGAAACAG [G4A G22C] showed a self-cleavage of 0.354.
ACCGGAUGUGCUUGCCGGUCUGAUGACUCCGUGAGGACGAAACAG [U14G G27C] gave a self-cleavage of 0.618.
In the case of ACCGGAUGGGCUUUCCGGUCUGAUGAGUCCGUGUGGACGAAACAG [U9G A34U], the self-cleavage is reported as 0.631.
ACCGGAUGUGCUUUCCGGUGUGAUGAGUCCGUGAGGACAAAACAG [C20G G39A] gave a self-cleavage of 0.34.
Variant AUCGGAUGUGCUUUCCGGUCAGAUGAGUCCGUGAGGACGAAACAG [C2U U21A] has a self-cleavage of 0.962.
Work on ACCGGAUGUGCUUUCCGGUCUGAUGAUUCCGUGAGGAAGAAACAG [G27U C38A] yielded a self-cleavage of 0.785.
ACCGGAUGUGCUUUCCGAUCUUAUGAGUCCGUGAGGACGAAACAG [G18A G22U] showed a self-cleavage of 0.373.
With ACCUGAUGAGCUUUCCGGUCUGAUGAGUCCGUGAGGACGAAACAG [G4U U9A] the self-cleavage was 0.395.
Variant ACCUGAUGUGCUUUCCGGUCUGAUGAGUCCGUGAGGACGCAACAG [G4U A40C] has a self-cleavage of 0.224.
With ACCGGAUGUGCUUCCCGGUCUGAUGAGUCCGUGAGGACGCAACAG [U14C A40C] the self-cleavage was 0.277.
For ACCGGAUCUGCUAUCCGGUCUGAUGAGUCCGUGAGGACGAAACAG [G8C U13A], the self-cleavage was 1.41.
For ACCGGAUGUGCUUUCCGGUCUGAUGAGUCCGUGAGGACGUAACUG [A40U A44U], the self-cleavage was 0.336.
ACCUGAUGUGCUUUCCGGUCUGAUGAGUCCGUGAAGACGAAACAG [G4U G35A] gave a self-cleavage of 0.337.
Variant ACCGGAUUUGCUUUCCGGUCUGAUGAGUCCUUGAGGACGAAACAG [G8U G31U] has a self-cleavage of 1.08.
Variant ACCGGAUGUGCUUUCCGGUCUGAUGAGUCCGUGAGAACGAAACGG [G36A A44G] has a self-cleavage of 0.75.
In the case of ACCGGAUGUGCUUUCCGGUCUCAUGAGUCCGUGAGGACGAAACAG [G22C], the self-cleavage is reported as 0.336.
ACCGGAUGUGCAUUCCGGUCUGAUGAGUCCGUGAGGACGAAGCAG [U12A A42G] gave a self-cleavage of 0.252.
With ACCGGAUGUGCUUUCCGGUCUGGUGAGUCCGUGAGGACGAAAUAG [A23G C43U] the self-cleavage was 0.269.
ACCGGGUGUGCUUUCCGGUUUGAUGAGUCCGUGAGGACGAAACAG [A6G C20U] showed a self-cleavage of 0.432.
Variant ACCGGAUGUGCUUUCCGGUCAGAUGAUUCCGUGAGGACGAAACAG [U21A G27U] has a self-cleavage of 0.294.
In the case of ACCGGAUGUGCUUUCCGGUCUGAUGAGUCCGCGAGGACGAAACAA [U32C G45A], the self-cleavage is reported as 0.776.
Work on ACCGGAUGUGCUUUCCGGUCUGAUGAGUCCGUAAGGACGAAACGG [G33A A44G] yielded a self-cleavage of 1.59.
Variant ACCGGAUGUGCUGUCCGAUCUGAUGAGUCCGUGAGGACGAAACAG [U13G G18A] has a self-cleavage of 0.642.
In the case of ACCGGAUGUGCUUUCCGGUCUGAUGAGUCCUUGAGGACGAAACUG [G31U A44U], the self-cleavage is reported as 0.94.
Work on ACCGGAUGUGCUUUCCGGUCGGAUGAGUCCGUGAGGACGAAACAU [U21G G45U] yielded a self-cleavage of 0.281.
Work on ACCGGAUGUCCUUUCCGAUCUGAUGAGUCCGUGAGGACGAAACAG [G10C G18A] yielded a self-cleavage of 1.06.
In the case of ACCGGAUGUGCUUUCCGGUCUGAUGAGUCCGUGCGGACGAUACAG [A34C A41U], the self-cleavage is reported as 0.363.
Work on ACCGGAUGUGCUUUCCGGUCUGAUGAGUCCGUGCGGACGACACAG [A34C A41C] yielded a self-cleavage of 0.354.
ACCGGAUAUGCUUUCCGGUCUGAUGAGUCCGUGAGGCCGAAACAG [G8A A37C] showed a self-cleavage of 1.06.
For ACCGGAGGUGAUUUCCGGUCUGAUGAGUCCGUGAGGACGAAACAG [U7G C11A], the self-cleavage was 1.6.
Variant UCCGGAUGUGCUUUCCGGUCUGAUGUGUCCGUGAGGACGAAACAG [A1U A26U] has a self-cleavage of 0.383.
With ACCGGAUAUGCUUUCCGGUCUGAUGAGUCCGUGAGGACGUAACAG [G8A A40U] the self-cleavage was 0.343.
Variant ACCGGAUGUGCUUUCCGGUCUGAUGAGUCAGUGAGGACGAAACUG [C30A A44U] has a self-cleavage of 0.441.
Variant ACCGGAUGUGCUUUCCAGUCUGAUGAGUCCGUGAAGACGAAACAG [G17A G35A] has a self-cleavage of 0.623.
ACCGGAUGUGCUUUCCGUUCUGAUGAGUCCGUGAGGUCGAAACAG [G18U A37U] showed a self-cleavage of 0.494.
For ACCGUAUGUGCUUUCCGGUUUGAUGAGUCCGUGAGGACGAAACAG [G5U C20U], the self-cleavage was 0.595.
ACCGGAUGUGCUCUCCGGUCCGAUGAGUCCGUGAGGACGAAACAG [U13C U21C] showed a self-cleavage of 1.23.
ACCGGAUGUCCUUUCCGGUCUGAUGAGUCCGUAAGGACGAAACAG [G10C G33A] gave a self-cleavage of 1.14.
In the case of ACCCGAUGUGGUUUCCGGUCUGAUGAGUCCGUGAGGACGAAACAG [G4C C11G], the self-cleavage is reported as 0.767.
For ACCGGAUGUGCUUUCCAGUCUGAUGAGUCCGUGAGGACGGAACAG [G17A A40G], the self-cleavage was 0.361.
Variant ACCGGAUGUGCUUUCAGGUCCGAUGAGUCCGUGAGGACGAAACAG [C16A U21C] has a self-cleavage of 0.276.
ACCGGAUGUGCUUUCCUGUCUGCUGAGUCCGUGAGGACGAAACAG [G17U A23C] showed a self-cleavage of 0.32.
Work on ACCGGAUGUGCUUUCCGGUCUGAUGGGUCCGUGAGGACGAAACCG [A26G A44C] yielded a self-cleavage of 0.266.
Variant ACCGGAUGUGCUUUCCGGUCUAAUGAGUUCGUGAGGACGAAACAG [G22A C29U] has a self-cleavage of 0.279.
